PMC9600255
pKd: −log10 of the molar value.

Biological target: His6-tagged cytokeratin-19 (Novus Biologicals) (UniProt P08727)
Assay: MST; His6-cytokeratin-19 labelled with RED-tris-NTA 2nd Generation dye, kept at 25 nM; BspC full-length or V-domain titrated from 5 uM to 0.153 nM; premium capillaries, Monolith NT.115 Pico, 20% excitation power

UniProt P08727, sequence (P08727 whole entry): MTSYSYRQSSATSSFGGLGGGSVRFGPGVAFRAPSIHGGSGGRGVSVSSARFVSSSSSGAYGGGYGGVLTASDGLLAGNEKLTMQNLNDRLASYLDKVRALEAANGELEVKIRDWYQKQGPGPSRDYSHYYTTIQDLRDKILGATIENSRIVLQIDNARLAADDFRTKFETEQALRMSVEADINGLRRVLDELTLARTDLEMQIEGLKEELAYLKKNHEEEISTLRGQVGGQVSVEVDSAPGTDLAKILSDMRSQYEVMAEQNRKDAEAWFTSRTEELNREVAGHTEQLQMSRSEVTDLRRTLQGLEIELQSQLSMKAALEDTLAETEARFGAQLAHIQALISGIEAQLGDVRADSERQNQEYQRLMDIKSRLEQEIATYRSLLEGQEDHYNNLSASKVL

Substance | pKd
BspC V-domain protein (recombinant BspC consisting of only the variable domain) (domain or fragment) | 6.44
full-length BspC protein (Group B streptococcal surface protein C) (natural protein) | 7.48
